Values quoted from earlier work in patent publication US7323168B2, “Immunotherapy for chronic myelocytic leukemia” (Immunomedics, Inc., priority 2000, dated 2008).

Tested on: IFN-γ levels
Conditions: single intravenous dose 42.5 μg/kilogram, rhesus monkeys

B1: recombinant IL-12: recombinant interleukin-12 (protein, UniProt P29459 23-219; P29460 23-328, looked up)
Interleukin-12 subunit alpha: RNLPVATPDPGMFPCLHHSQNLLRAVSNMLQKARQTLEFYPCTSEEIDHEDITKDKTSTVEACLPLELTKNESCLNSRETSFITNGSCLASRKTSFMMALCLSSIYEDLKMYQVEFKTMNAKLLMDPKRQIFLDQNMLAVIDELMQALNFNSETVPQKSSLEEPDFYKTKIKLCILLHAFRIRAVTIDRVMSYLNAS
Interleukin-12 subunit beta: IWELKKDVYVVELDWYPDAPGEMVVLTCDTPEEDGITWTLDQSSEVLGSGKTLTIQVKEFGDAGQYTCHKGGEVLSHSLLLLHKKEDGIWSTDILKDQKEPKNKTFLRCEAKNYSGRFTCWWLTTISTDLTFSVKSSRGSSDPQGVTCGAATLSAERVRGDNKEYEYSVECQEDSACPAAEESLPIEVMVDAVHKLKYENYTSSFFIRDIIKPDPPKNLQLKPLKNSRQVEVSWEYPDTWSTPHSYFSLTFCVQVQGKSKREKKDRVFTDKTSATVICRKNASISVRAQDRYYSSSWSEWASVPCS
IFN-γ levels: elevated
